Data: patent US20120077731A1 (Ablynx, published 2012)
Residue numbers refer to the chain shown, from its start. Several values for one entry are separate records, joined by “and”; a condition that tells them apart may be missing. Equal entries are not always repeated.

T1: Human membrane IL-6R on cells (human, UniProt P08887 20-468)
T1 sequence (looked up): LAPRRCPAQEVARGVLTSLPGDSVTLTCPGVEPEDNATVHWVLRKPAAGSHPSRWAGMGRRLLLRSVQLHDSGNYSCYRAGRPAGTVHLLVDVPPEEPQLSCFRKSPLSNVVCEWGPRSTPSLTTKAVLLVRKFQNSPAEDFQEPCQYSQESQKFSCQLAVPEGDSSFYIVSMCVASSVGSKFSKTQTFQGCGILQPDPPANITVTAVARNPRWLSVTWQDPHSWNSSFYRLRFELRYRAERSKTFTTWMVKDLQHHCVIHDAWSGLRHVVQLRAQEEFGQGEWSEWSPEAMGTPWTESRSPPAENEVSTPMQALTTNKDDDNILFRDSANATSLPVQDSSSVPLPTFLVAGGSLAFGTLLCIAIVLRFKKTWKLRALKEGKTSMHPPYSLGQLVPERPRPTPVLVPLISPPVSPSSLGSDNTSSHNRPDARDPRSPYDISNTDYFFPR

T2: Human soluble IL-6R (human, UniProt P08887 20-358)
T2 construct: Soluble recombinant form; biotinylated in some assays; also called hIL-6R; human IL-6R
T2 sequence (looked up): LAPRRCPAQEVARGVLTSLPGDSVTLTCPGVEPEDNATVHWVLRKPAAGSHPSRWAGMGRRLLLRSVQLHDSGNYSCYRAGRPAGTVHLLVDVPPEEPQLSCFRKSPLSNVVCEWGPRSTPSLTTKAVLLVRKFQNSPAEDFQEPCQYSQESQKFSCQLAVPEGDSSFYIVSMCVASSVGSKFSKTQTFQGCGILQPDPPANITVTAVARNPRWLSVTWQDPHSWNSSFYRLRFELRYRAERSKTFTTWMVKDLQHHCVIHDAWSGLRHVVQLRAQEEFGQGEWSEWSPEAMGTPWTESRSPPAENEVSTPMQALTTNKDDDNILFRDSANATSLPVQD

T3: Mouse IL-6R (mouse, UniProt P22272 20-364, limits assumed)
T3 construct: also called mouse sIL-6R
T3 sequence (looked up): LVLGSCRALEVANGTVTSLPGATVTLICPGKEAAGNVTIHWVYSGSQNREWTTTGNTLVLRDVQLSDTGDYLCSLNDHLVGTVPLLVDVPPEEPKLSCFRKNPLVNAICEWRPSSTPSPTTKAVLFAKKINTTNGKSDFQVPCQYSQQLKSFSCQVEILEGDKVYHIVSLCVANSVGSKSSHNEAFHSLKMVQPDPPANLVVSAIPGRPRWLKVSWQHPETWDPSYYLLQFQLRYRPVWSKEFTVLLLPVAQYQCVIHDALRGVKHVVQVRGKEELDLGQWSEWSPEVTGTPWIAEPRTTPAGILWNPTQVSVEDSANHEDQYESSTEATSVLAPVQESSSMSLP

B1: IL6R11 (VHH)
VHH: EVQLVESGGGLVQAGGSLRLSCAASGFTFDDYAIGWFRQAPGKEHEGVSCISSSDGSTYYADSVKGRFTISSDNAKNTVYLQMNSLKPEDTAVYYCAAERDVPARSLCGSYYWYDYRGQGTQVTVSS
notes: also called PMP35E11; not shown: C-terminal c-myc and (His)6 tags
B2: IL6R07 (VHH)
VHH: EVQLVESGGGLVQPGGSLRLSCAASGFTLDYGAIGWFRQAPGKEREGVSCISSSTGSTYYADSVKGRFTISRDNGKNTVYLQMNSLKPEDTAVYYCAADKMWSPCLVAANEEALFEYDYWGQGTQVTVSS
notes: also called PMP33A3; not shown: C-terminal c-myc and (His)6 tags
B3: IL6R14 (VHH)
VHH: EVQLVESGGGLVQPGGSLRLSCAASGFSLDYYAIGWFRQAPGKEREGVSCMDSSSGTTSTYYSDSVKGRFTISRDDAKNTVYLQMNSLKPEDTAVYYCAADGHLNWGQRYVPCSQISWRGWNDYWGQGTQVTVSS
notes: also called PMP40H5; not shown: C-terminal c-myc and (His)6 tags
B4: IL6R09 (VHH)
VHH: EVQLVESGGGLVQAGGSLRLSCAASGRTSSSYDMTWYRQVPGKEREFVAVISWSGGSTYYADSVKGRFTISRDNAKNTVYLQMNSLKPEDTAIYYCNAYTGGGDDYWGQGTQVTVSS
notes: also called PMP34G9; not shown: C-terminal c-myc and (His)6 tags
B5: IL6R10 (VHH)
VHH: EVQLVESGGGLVQAGGSLRLSCAASGRTFSSYDMGWYRQAPGKEREFVAVIHWSSGSTYYADPVKGRFTISRDNAKNTVYLQMNSLKPEDTAIYYCNAFLPGPEGFHDYWGQGTQVTVSS
notes: also called PMP35C10; not shown: C-terminal c-myc and (His)6 tags
B6: IL6R08 (VHH)
VHH: EVQLVESGGGLVQPGGSLRLSCVASGFSLDYYVIGWFRQAPGKEREGVSCISSSDGSTYYADSVKGRFTISRDNAKNTVYLQMNSLKPEDTAVYYCAADLLRTPEFCVDSAPYDYWGQGTQVTVSS
notes: also called PMP34A12; not shown: C-terminal c-myc and (His)6 tags
B7: IL6R05 (VHH)
VHH: EVQLVESGGGLVQPGGSLRLSCAASGFTFGSYDMSWVRQAPGKGPEWVSAINSGGGSTYYADSVKGRFTISRDNAKNTLYLQMNSLKPEDTAVYYCATDWRYSDYDLPLPPPGDYWGQGTQVTVSS
notes: also called PMP32E10; not shown: C-terminal c-myc and (His)6 tags
B8: IL6R12 (VHH)
VHH: EVQLVESGGGLVQAGGSLRLSCAASGRTFSSYDMGWYRQAPGKEREFVAIITWNSSTYYADSVKGRFTISRDNAKNTVYLQMNSLKPEDTAIYYCNAQYGLGYAEDYWGQGTQVTVSS
notes: also called PMP35F4; not shown: C-terminal c-myc and (His)6 tags
B9: IL6R85 (VHH)
VHH: EVQLVESGGGLVQPGGSLRLSCAASGFTFDDYGMSWVRQAPGRGLEWVSAISWNGNNTYYTESMKGRFTISRDNAKNTLYLQMNSLRPEDTAVYYCVKGSTAIVGVPPTYPDEYDYWGQGTLVTVSS
notes: IL6R13 variant, tested as periplasmic extract
B10: IL6R89 (VHH)
VHH: B9 VHH with L45T
notes: as for B9
B11: IL6R86 (VHH)
VHH: B9 VHH with G44A
notes: as for B9
B12: IL6R87 (VHH)
VHH: B9 VHH with R43K, G44A, L45T
notes: as for B9
B13: IL6R90 (VHH)
VHH: B9 VHH with R43K, G44A
notes: as for B9

Biological target: T1, Human membrane IL-6R on cells
Assay: cell-based or functional assay

In order of rising “IC50 (nM), XG-1 cell proliferation” value:
1. B3  0.6 nM
2. B5  2.5 nM
3. B4  2.7 nM
4. B8  2.8 nM
5. B1  5.4 nM
6. B7  7.3 nM
7. B6  36.6 nM
8. B2  50.5 nM

In order of rising “IC50 (nM) + HSA, XG-1 cell proliferation” value:
1. B3  0.8 nM
2. B4  3 nM

Biological target: T2, Human soluble IL-6R
Assay: Alphascreen, 100 nM Nanobody, 0.4 nM bio-IL-6R; competitor: reference Fab

In order of falling “Residual reference-Fab binding to IL-6R (%)” value:
1. B8  103%
2. B5  102%
3. B6  99%
4. B3  96%
5. B2  80%
6. B7  64%
7. B4  62%
8. B1  40%

Biological target: T2, Human soluble IL-6R
Assay: SPR Biacore 3000, IL-6R amine-coupled to CM5
Method: (§1) Nanobodies were injected at 5 different concentrations between 1 and 50 nM. Flow rate was 45 μl/min in all experiments. Association and dissociation phase were 3 and 10 min, respectively. The chip was regenerated using Glycine/HCl pH 1.5.

For B1, the Kd was 0.9 nM and 1.9 nM.
B4 was tested, and the Kd was 2 nM and 1.2 nM.

For B1, the koff was 0.00034 s⁻¹ and 0.000396 s⁻¹ and 0.000417 s⁻¹.
In the case of B3, the koff is reported as 0.0001 s⁻¹ and 0.000114 s⁻¹.
In the case of B4, the koff is reported as 0.00129 s⁻¹ and 0.0013 s⁻¹ and 0.00139 s⁻¹.
In the case of B5, the koff is reported as 0.000526 s⁻¹ and 0.000509 s⁻¹.
B7 was tested, and the koff was 0.00141 s⁻¹ and 0.00127 s⁻¹.
For B8, the koff was 0.00116 s⁻¹ and 0.000896 s⁻¹.

With B1 the kon was 391000 M⁻¹ s⁻¹ and 215000 M⁻¹ s⁻¹.
With B4 the kon was 641000 M⁻¹ s⁻¹ and 1.11e+06 M⁻¹ s⁻¹.

In order of rising koff:
1. B2  0.000242 s⁻¹
2. B6  0.00197 s⁻¹

In order of falling Kd:
1. B6  10.2 nM
2. B7  9.8 nM
3. B8  1.7 nM
4. B5  1.3 nM
5. B3  0.3 nM

In order of rising kon:
1. B7  144000 M⁻¹ s⁻¹
2. B6  194000 M⁻¹ s⁻¹
3. B3  402000 M⁻¹ s⁻¹
4. B5  414000 M⁻¹ s⁻¹
5. B8  678000 M⁻¹ s⁻¹

Biological target: T2, Human soluble IL-6R
Assay: inhibition of the IL-6/IL-6R interaction, summary table C-13
Method: (§2) Finally streptavidin donor beads were added and after 1 hour incubator the plate was read on the Envision microplate reader.

In order of falling IC50:
1. B2  1.44 nM
2. B6  1.18 nM
3. B7  0.63 nM
4. B5  0.6 nM
5. B8  0.52 nM
6. B4  0.24 nM
7. B3  0.22 nM
8. B1  0.16 nM

Biological target: T1, Human membrane IL-6R on cells
Assay: cell-based or functional assay
Remark: another data set of the same source

In order of falling “IC50 (nM), TF1 cell proliferation” value:
1. B2  375 nM
2. B7  38 nM
3. B6  24.3 nM
4. B1  9.9 nM
5. B5  9.9 nM
6. B4  8.7 nM
7. B8  6.8 nM
8. B3  1.5 nM

Biological target: T2, Human soluble IL-6R
Assay: competition for IL-6R, competitor reference Fab, summary table C-13

In order of rising “Ref Fab competition (%)” value:
1. B1  40%
2. B4  62%
3. B7  64%
4. B2  80%
5. B3  96%
6. B6  99%
7. B5  102%
8. B8  103%

Biological target: T3, Mouse IL-6R
Assay: ELISA: plate coated with 1 µg/ml mouse IL-6R, 500 nM Nanobody, anti-myc + anti-mouse-HRP
Method: Detection was performed with anti-myc and anti-mouse-HRP as first and second antibody respectively.

B1: no binding (tested: 500 nM).
B2: no binding (tested: 500 nM).
B3: no binding (tested: 500 nM).
B4: no binding (tested: 500 nM).
B5: no binding (tested: 500 nM).
B6: no binding (tested: 500 nM).
B7: no binding (tested: 500 nM).
B8: no binding (tested: 500 nM).

Biological target: T1, Human membrane IL-6R on cells
Assay: cell-based or functional assay
Remark: another data set of the same source

In order of rising “IC50 (nM) XG-1” value:
1. B3  0.6 nM
2. B5  2.5 nM
3. B4  2.7 nM
4. B8  2.8 nM
5. B1  5.4 nM
6. B7  7.3 nM
7. B6  36.6 nM
8. B2  50.5 nM

Biological target: T2, Human soluble IL-6R
Assay: Biacore off-rate, periplasmic extracts

In order of rising koff:
1. B12  0.00011 s⁻¹
2. B10  0.00019 s⁻¹
3. B11  0.0017 s⁻¹
4. B13  0.0019 s⁻¹
5. B9  0.0021 s⁻¹

Biological target: T2, Human soluble IL-6R
Assay: Biacore off-rate, periplasmic extract

In order of rising koff:
1. B3  0.000114 s⁻¹
2. B2  0.000242 s⁻¹
3. B1  0.000417 s⁻¹
4. B5  0.000509 s⁻¹
5. B8  0.000896 s⁻¹
6. B7  0.00127 s⁻¹
7. B4  0.00139 s⁻¹

Biological target: T2, Human soluble IL-6R
Assay: summary table C-13 of Nanobody characteristics, Kd on IL-6R
Method: as §1

In order of rising Kd:
1. B3  0.3 nM
2. B1  0.9 nM
3. B5  1.3 nM
4. B8  1.7 nM
5. B4  2 nM
6. B7  9.8 nM
7. B6  10.2 nM

Biological target: T2, Human soluble IL-6R
Assay: Alphascreen, inhibition of bio-IL-6 binding to IL-6R
Method: as §2

In order of rising IC50:
1. B1  0.158 nM
2. B3  0.222 nM
3. B4  0.238 nM
4. B8  0.517 nM
5. B5  0.596 nM
6. B7  0.626 nM
7. B6  1.18 nM
8. B2  1.44 nM
